Assay results published in patent US20160053277A1, “Compositions Having Dicamba Decarboxylase Activity and Methods of Use” (PIONEER HI-BRED INTERNATIONAL, INC., priority 2013, published 2016).

B1: R212Q: point mutant of SEQ ID NO: 109 (protein)
chain: MAQGKVALEEHFAIPETLQDSAGFVPGDYWKELQHRLLDIQDTRLKLMDAHGIETMILSLNAPAVQAIPDRRKAIEIARRANDVLAEECAKRPDRFLAFAALPLQDPDAATEELQRCVNDLGFVGALVNGFSQEGDGQTPLYYDLPQYRPFWGEVEKLDVPFYLHPRNPLPQDSRIYDGHPWLLGPTWAFAQETAVHALRLMASGLFDEHPQLNIILGHMGEGLPYMMWRIDHRVAWVKLPPRYPAKRRFMDYFNENFHITTSGNFRTQTLIDAILEIGADRILFSTDWPFENIDHASDWFNATSIAEADRVKIGRTNARRLFKLDGA
modifications: Dicamba decarboxylase variant clone: DC.4.032
B2: S298A: point mutant of SEQ ID NO: 109 (protein)
chain: MAQGKVALEEHFAIPETLQDSAGFVPGDYWKELQHRLLDIQDTRLKLMDAHGIETMILSLNAPAVQAIPDRRKAIEIARRANDVLAEECAKRPDRFLAFAALPLQDPDAATEELQRCVNDLGFVGALVNGFSQEGDGQTPLYYDLPQYRPFWGEVEKLDVPFYLHPRNPLPQDSRIYDGHPWLLGPTWAFAQETAVHALRLMASGLFDEHPRLNIILGHMGEGLPYMMWRIDHRVAWVKLPPRYPAKRRFMDYFNENFHITTSGNFRTQTLIDAILEIGADRILFSTDWPFENIDHAADWFNATSIAEADRVKIGRTNARRLFKLDGA
modifications: Dicamba decarboxylase variant clone: DC.4.032
B3: S298T: point mutant of SEQ ID NO: 109 (protein)
chain: MAQGKVALEEHFAIPETLQDSAGFVPGDYWKELQHRLLDIQDTRLKLMDAHGIETMILSLNAPAVQAIPDRRKAIEIARRANDVLAEECAKRPDRFLAFAALPLQDPDAATEELQRCVNDLGFVGALVNGFSQEGDGQTPLYYDLPQYRPFWGEVEKLDVPFYLHPRNPLPQDSRIYDGHPWLLGPTWAFAQETAVHALRLMASGLFDEHPRLNIILGHMGEGLPYMMWRIDHRVAWVKLPPRYPAKRRFMDYFNENFHITTSGNFRTQTLIDAILEIGADRILFSTDWPFENIDHATDWFNATSIAEADRVKIGRTNARRLFKLDGA
modifications: Dicamba decarboxylase variant clone: DC.4.032
B4: L240A: point mutant of SEQ ID NO: 109 (protein)
chain: MAQGKVALEEHFAIPETLQDSAGFVPGDYWKELQHRLLDIQDTRLKLMDAHGIETMILSLNAPAVQAIPDRRKAIEIARRANDVLAEECAKRPDRFLAFAALPLQDPDAATEELQRCVNDLGFVGALVNGFSQEGDGQTPLYYDLPQYRPFWGEVEKLDVPFYLHPRNPLPQDSRIYDGHPWLLGPTWAFAQETAVHALRLMASGLFDEHPRLNIILGHMGEGLPYMMWRIDHRVAWVKAPPRYPAKRRFMDYFNENFHITTSGNFRTQTLIDAILEIGADRILFSTDWPFENIDHASDWFNATSIAEADRVKIGRTNARRLFKLDGA
modifications: Dicamba decarboxylase variant clone: DC.4.032
B5: L240E: point mutant of SEQ ID NO: 109 (protein)
chain: MAQGKVALEEHFAIPETLQDSAGFVPGDYWKELQHRLLDIQDTRLKLMDAHGIETMILSLNAPAVQAIPDRRKAIEIARRANDVLAEECAKRPDRFLAFAALPLQDPDAATEELQRCVNDLGFVGALVNGFSQEGDGQTPLYYDLPQYRPFWGEVEKLDVPFYLHPRNPLPQDSRIYDGHPWLLGPTWAFAQETAVHALRLMASGLFDEHPRLNIILGHMGEGLPYMMWRIDHRVAWVKEPPRYPAKRRFMDYFNENFHITTSGNFRTQTLIDAILEIGADRILFSTDWPFENIDHASDWFNATSIAEADRVKIGRTNARRLFKLDGA
modifications: Dicamba decarboxylase variant clone: DC.4.032
B6: E16A: point mutant of SEQ ID NO: 109 (protein)
chain: MAQGKVALEEHFAIPATLQDSAGFVPGDYWKELQHRLLDIQDTRLKLMDAHGIETMILSLNAPAVQAIPDRRKAIEIARRANDVLAEECAKRPDRFLAFAALPLQDPDAATEELQRCVNDLGFVGALVNGFSQEGDGQTPLYYDLPQYRPFWGEVEKLDVPFYLHPRNPLPQDSRIYDGHPWLLGPTWAFAQETAVHALRLMASGLFDEHPRLNIILGHMGEGLPYMMWRIDHRVAWVKLPPRYPAKRRFMDYFNENFHITTSGNFRTQTLIDAILEIGADRILFSTDWPFENIDHASDWFNATSIAEADRVKIGRTNARRLFKLDGA
modifications: Dicamba decarboxylase variant clone: DC.4.032
B7: N214Q: point mutant of SEQ ID NO: 109 (protein)
chain: MAQGKVALEEHFAIPETLQDSAGFVPGDYWKELQHRLLDIQDTRLKLMDAHGIETMILSLNAPAVQAIPDRRKAIEIARRANDVLAEECAKRPDRFLAFAALPLQDPDAATEELQRCVNDLGFVGALVNGFSQEGDGQTPLYYDLPQYRPFWGEVEKLDVPFYLHPRNPLPQDSRIYDGHPWLLGPTWAFAQETAVHALRLMASGLFDEHPRLQIILGHMGEGLPYMMWRIDHRVAWVKLPPRYPAKRRFMDYFNENFHITTSGNFRTQTLIDAILEIGADRILFSTDWPFENIDHASDWFNATSIAEADRVKIGRTNARRLFKLDGA
modifications: Dicamba decarboxylase variant clone: DC.4.032
B8: L240D: point mutant of SEQ ID NO: 109 (protein)
chain: MAQGKVALEEHFAIPETLQDSAGFVPGDYWKELQHRLLDIQDTRLKLMDAHGIETMILSLNAPAVQAIPDRRKAIEIARRANDVLAEECAKRPDRFLAFAALPLQDPDAATEELQRCVNDLGFVGALVNGFSQEGDGQTPLYYDLPQYRPFWGEVEKLDVPFYLHPRNPLPQDSRIYDGHPWLLGPTWAFAQETAVHALRLMASGLFDEHPRLNIILGHMGEGLPYMMWRIDHRVAWVKDPPRYPAKRRFMDYFNENFHITTSGNFRTQTLIDAILEIGADRILFSTDWPFENIDHASDWFNATSIAEADRVKIGRTNARRLFKLDGA
modifications: Dicamba decarboxylase variant clone: DC.4.032
B9: K239H: point mutant of SEQ ID NO: 109 (protein)
chain: MAQGKVALEEHFAIPETLQDSAGFVPGDYWKELQHRLLDIQDTRLKLMDAHGIETMILSLNAPAVQAIPDRRKAIEIARRANDVLAEECAKRPDRFLAFAALPLQDPDAATEELQRCVNDLGFVGALVNGFSQEGDGQTPLYYDLPQYRPFWGEVEKLDVPFYLHPRNPLPQDSRIYDGHPWLLGPTWAFAQETAVHALRLMASGLFDEHPRLNIILGHMGEGLPYMMWRIDHRVAWVHLPPRYPAKRRFMDYFNENFHITTSGNFRTQTLIDAILEIGADRILFSTDWPFENIDHASDWFNATSIAEADRVKIGRTNARRLFKLDGA
modifications: Dicamba decarboxylase variant clone: DC.4.032
B10: R243A: point mutant of SEQ ID NO: 109 (protein)
chain: MAQGKVALEEHFAIPETLQDSAGFVPGDYWKELQHRLLDIQDTRLKLMDAHGIETMILSLNAPAVQAIPDRRKAIEIARRANDVLAEECAKRPDRFLAFAALPLQDPDAATEELQRCVNDLGFVGALVNGFSQEGDGQTPLYYDLPQYRPFWGEVEKLDVPFYLHPRNPLPQDSRIYDGHPWLLGPTWAFAQETAVHALRLMASGLFDEHPRLNIILGHMGEGLPYMMWRIDHRVAWVKLPPAYPAKRRFMDYFNENFHITTSGNFRTQTLIDAILEIGADRILFSTDWPFENIDHASDWFNATSIAEADRVKIGRTNARRLFKLDGA
modifications: Dicamba decarboxylase variant clone: DC.4.032
B11: W229Y: point mutant of SEQ ID NO: 109 (protein)
chain: MAQGKVALEEHFAIPETLQDSAGFVPGDYWKELQHRLLDIQDTRLKLMDAHGIETMILSLNAPAVQAIPDRRKAIEIARRANDVLAEECAKRPDRFLAFAALPLQDPDAATEELQRCVNDLGFVGALVNGFSQEGDGQTPLYYDLPQYRPFWGEVEKLDVPFYLHPRNPLPQDSRIYDGHPWLLGPTWAFAQETAVHALRLMASGLFDEHPRLNIILGHMGEGLPYMMYRIDHRVAWVKLPPRYPAKRRFMDYFNENFHITTSGNFRTQTLIDAILEIGADRILFSTDWPFENIDHASDWFNATSIAEADRVKIGRTNARRLFKLDGA
modifications: Dicamba decarboxylase variant clone: DC.4.032
B12: V235I: point mutant of SEQ ID NO: 109 (protein)
chain: MAQGKVALEEHFAIPETLQDSAGFVPGDYWKELQHRLLDIQDTRLKLMDAHGIETMILSLNAPAVQAIPDRRKAIEIARRANDVLAEECAKRPDRFLAFAALPLQDPDAATEELQRCVNDLGFVGALVNGFSQEGDGQTPLYYDLPQYRPFWGEVEKLDVPFYLHPRNPLPQDSRIYDGHPWLLGPTWAFAQETAVHALRLMASGLFDEHPRLNIILGHMGEGLPYMMWRIDHRIAWVKLPPRYPAKRRFMDYFNENFHITTSGNFRTQTLIDAILEIGADRILFSTDWPFENIDHASDWFNATSIAEADRVKIGRTNARRLFKLDGA
modifications: Dicamba decarboxylase variant clone: DC.4.032

Assay: Saturation mutagenesis of SEQ ID NO:109: dicamba decarboxylation activity of point mutants (carbon dioxide released)
[1] = dicamba decarboxylation activity of point mutants of SEQ ID NO: 109, relative to unchanged template
[2] = point mutation in SEQ ID NO: 109

Row | Molecule | Average Activity (Fold of SEQ ID NO: 109) [1] | Average Activity (Fold of SEQ ID NO: 109) [2]
1 | B1 | 1.7 Fold of SEQ ID NO: 109 | 1.7 Fold of SEQ ID NO: 109
2 | B2 | 2.1 Fold of SEQ ID NO: 109 | 2.1 Fold of SEQ ID NO: 109
3 | B3 | 2.3 Fold of SEQ ID NO: 109 | 
4 | B4 | 2.3 Fold of SEQ ID NO: 109 | 
5 | B5 | 2.1 Fold of SEQ ID NO: 109 | 2.1 Fold of SEQ ID NO: 109
6 | B6 | 1.8 Fold of SEQ ID NO: 109 | 
7 | B7 | 1.8 Fold of SEQ ID NO: 109 | 1.8 Fold of SEQ ID NO: 109
8 | B8 | 2.2 Fold of SEQ ID NO: 109 | 
9 | B9 | 1.8 Fold of SEQ ID NO: 109 | 1.8 Fold of SEQ ID NO: 109
10 | B10 | 1.8 Fold of SEQ ID NO: 109 | 1.8 Fold of SEQ ID NO: 109
11 | B11 | 1.7 Fold of SEQ ID NO: 109 | 1.7 Fold of SEQ ID NO: 109
12 | B12 | 1.8 Fold of SEQ ID NO: 109 | 1.8 Fold of SEQ ID NO: 109
